T1: α-synuclein peptide 16 (106-119) (human)
T1 construct: also called Peptide No. 16
T1 peptide: GAPQEGILEDMPVD

T2: α-synuclein peptide 15 (99-112) (human)
T2 construct: also called Peptide No. 15
T2 peptide: QLGKNEEGAPQEGI

T3: α-synuclein peptide 8 (50-63) (human)
T3 construct: also called Peptide No. 8
T3 peptide: HGVATVAEKTKEQV

T4: α-synuclein peptide 12 (78-91) (human)
T4 construct: also called Peptide No. 12
T4 peptide: AQKTVEGAGSIAAA

T5: α-synuclein peptide 18 (120-133) (human)
T5 construct: also called Peptide No. 18
T5 peptide: PDNEAYEMPSEEGY

T6: α-synuclein peptide 6 (36-49) (human)
T6 construct: also called Peptide No. 6
T6 peptide: GVLYVGSKTKEGVV

T7: α-synuclein peptide 14 (92-105) (human)
T7 construct: also called Peptide No. 14
T7 peptide: TGFVKKDQLGKNEE

T8: α-synuclein peptide 1 (1-14) (human)
T8 construct: also called Peptide No. 1
T8 peptide: MDVFMKGLSKAKEG

T9: α-synuclein peptide 2 (8-21) (human)
T9 construct: also called Peptide No. 2
T9 peptide: LSKAKEGVVAAAEK

T10: α-synuclein peptide 9 (57-70) (human)
T10 construct: also called Peptide No. 9
T10 peptide: EKTKEQVTNVGGAV

T11: α-synuclein peptide 10 (64-77) (human)
T11 construct: also called Peptide No. 10
T11 peptide: TNVGGAVVTGVTAV

T12: α-synuclein peptide 13 (85-98) (human)
T12 construct: also called Peptide No. 13
T12 peptide: AGSIAAATGFVKKD

T13: α-synuclein peptide 17 (113-126) (human)
T13 construct: also called Peptide No. 17
T13 peptide: LEDMPVDPDNEAYE

T14: α-synuclein peptide 3 (15-28) (human)
T14 construct: also called Peptide No. 3
T14 peptide: VVAAAEKTKQGVAE

T15: α-synuclein peptide 7 (43-56) (human)
T15 construct: also called Peptide No. 7
T15 peptide: KTKEGVVHGVATVA

T16: α-synuclein peptide 11 (71-84) (human)
T16 construct: also called Peptide No. 11
T16 peptide: VTGVTAVAQKTVEG

T17: IAPP monomers (UniProt P10997 34-70)
T17 peptide (looked up): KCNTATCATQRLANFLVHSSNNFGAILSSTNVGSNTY

T18: fibrils of NAC (61-78) (human)
T18 construct: also called NAC (61-78) (F)
T18 peptide: EQVTNVGGAVVTGVTAVA

T19: IAPP fibrils (UniProt P10997 34-70)
T19 construct: Amyloid fibrils of IAPP spotted in the dot blot; also called islet amyloid polypeptide
T19 peptide (looked up): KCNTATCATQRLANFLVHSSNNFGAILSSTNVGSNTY


Legend:
[1] = target: T1, α-synuclein peptide 16 (106-119); assay: pepscan ELISA
Protocol: (§1) To confirm the pepscan results using dot blot the mAbs were also tested by Pepscan using ELISA. […] The plate was washed with PBST and 50 μl of substrate (SuperSignal ELISA Femto Maximum Sensitivity Substrate, Thermo Scientific) was added and immediately read the plate using Victor X3 microtiter plate reader. After the ELISA signals were measured, the plate was also exposed onto X-ray film to develop the spots.

[2] = target: T2, α-synuclein peptide 15 (99-112); assay: pepscan ELISA
Protocol: as §1

[3] = target: T3, α-synuclein peptide 8 (50-63); assay: pepscan ELISA
Protocol: as §1

[4] = target: T4, α-synuclein peptide 12 (78-91); assay: pepscan ELISA
Protocol: as §1

[5] = target: T5, α-synuclein peptide 18 (120-133); assay: pepscan ELISA
Protocol: as §1

[6] = target: T6, α-synuclein peptide 6 (36-49); assay: pepscan ELISA
Protocol: as §1

[7] = target: T7, α-synuclein peptide 14 (92-105); assay: pepscan ELISA
Protocol: as §1

[8] = target: T8, α-synuclein peptide 1 (1-14); assay: pepscan ELISA
Protocol: as §1

[9] = target: T9, α-synuclein peptide 2 (8-21); assay: pepscan ELISA
Protocol: as §1

[10] = target: T10, α-synuclein peptide 9 (57-70); assay: pepscan ELISA
Protocol: as §1

[11] = target: T11, α-synuclein peptide 10 (64-77); assay: pepscan ELISA
Protocol: as §1

[12] = target: T12, α-synuclein peptide 13 (85-98); assay: pepscan ELISA
Protocol: as §1

[13] = target: T13, α-synuclein peptide 17 (113-126); assay: pepscan ELISA
Protocol: as §1

[14] = target: T14, α-synuclein peptide 3 (15-28); assay: pepscan ELISA
Protocol: as §1

[15] = target: T15, α-synuclein peptide 7 (43-56); assay: pepscan ELISA
Protocol: as §1

[16] = target: T16, α-synuclein peptide 11 (71-84); assay: pepscan ELISA
Protocol: as §1

γ-synuclein monomers = γ-synuclein monomers (UniProt O76070 1-127); assay: dot blot
Protocol: (§2) The membranes were blocked with 5% skimmed milk in PBST (PBS containing 0.05% Tween) and incubated for 1 h at room temperature. […] The membranes were washed and incubated with either 1/20000 diluted goat anti-mouse IgG-HRP (Jackson ImmunoResearch) or 1/10000 diluted goat anti-rabbit IgG-HRP (Jackson Immunoresearch) for 1 h at room temperature. The blots were then developed with Super signal West Pico chemiluminescent substrate.
(§3) C) To test the cross reactivity of our conformational monoclonal antibodies to different fragments of α-synuclein. […] The membranes were washed before incubating with either 1/20000 diluted goat anti-mouse IgG-HRP conjugate (Jackson Immunoresearch) or 1/300000 diluted chicken anti-goat IgG-HRP conjugate (Santa Cruz Biotechnology) for 1 h at room temperature. The blots were then developed with Super signal West Pico chemiluminescent substrate.

β-synuclein fibrils = β-synuclein fibrils (UniProt Q16143 1-134); assay: dot blot
Protocol: as §2, §3

IAPP monomers = target: T17, IAPP monomers; assay: dot blot
Protocol: as §2, §3

fibrils of NAC (61-78) = target: T18, fibrils of NAC (61-78); assay: dot blot
Protocol: as §2, §3

IAPP fibrils = target: T19, IAPP fibrils; assay: dot blot
Protocol: as §2, §3

γ-synuclein fibrils = γ-synuclein fibrils (UniProt O76070 1-127); assay: dot blot
Protocol: as §2, §3

A-beta monomers = target: T20, A-beta monomers (UniProt P05067 672-713, limits assumed); assay: dot blot
T20 construct: also called β-amyloid monomers
Protocol: as §2, §3

A-beta fibrils = target: T21, A-beta fibrils (UniProt P05067 672-713, limits assumed); assay: dot blot
T21 construct: Amyloid fibrils of A-beta spotted in the dot blot; also called β-amyloid
Protocol: as §2, §3

fibrils of NAC (61-95) = target: T22, fibrils of NAC (61-95) (human); assay: dot blot
T22 construct: also called NAC region (61-95) (F)
Protocol: as §2, §3

β-synuclein monomers = β-synuclein monomers (UniProt Q16143 1-134); assay: dot blot
Chain of β-synuclein monomers (Q16143 whole entry): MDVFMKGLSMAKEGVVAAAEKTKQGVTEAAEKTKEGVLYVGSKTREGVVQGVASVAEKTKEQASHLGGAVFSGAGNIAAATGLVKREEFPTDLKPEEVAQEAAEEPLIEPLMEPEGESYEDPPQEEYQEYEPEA
Protocol: as §2, §3

Chain of β-synuclein fibrils (Q16143 whole entry): as above
Chain of γ-synuclein fibrils (O76070 whole entry): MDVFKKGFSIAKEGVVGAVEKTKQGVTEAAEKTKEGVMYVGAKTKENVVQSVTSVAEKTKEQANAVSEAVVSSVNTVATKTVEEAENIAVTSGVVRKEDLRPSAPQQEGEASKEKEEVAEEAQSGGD
Chain of γ-synuclein monomers (O76070 whole entry): as above

binding result (γ-synuclein monomers) | binding result (β-synuclein fibrils) | binding result (fibrils of NAC (61-78)) | Binder | binding result [1] | binding result [2] | binding result [3] | binding result [4] | binding result [5] | binding result [6] | binding result [7] | binding result [8] | binding result [9] | binding result [10] | binding result [11] | binding result [12] | binding result [13] | binding result [14] | binding result [15] | binding result [16] | binding result (IAPP monomers) | also measured
no binding (tested: 50 ng spotted) | no binding (tested: 50 ng spotted) | no binding (tested: 50 ng spotted) | Syn-F1 (antibody, V domains shown, also called mAb Syn-F1) VH: DVQLVESGGDLVQPGGSRKLSCAASGFTFSSFGMHWVRQAPEKGLEWVAYINSGSSTIYYADTVKGRFTISRDNPKNTLFLQMTSLRSEDTAMYYCARGNNPGTGYYYSMDYWGQGTSVTVSS VL: not shown | no binding (tested: 100 ng/ml antibody, 500 ng/well peptide) | no binding (tested: 100 ng/ml antibody, 500 ng/well peptide) | no binding (tested: 100 ng/ml antibody, 500 ng/well peptide) | no binding (tested: 100 ng/ml antibody, 500 ng/well peptide) | no binding (tested: 100 ng/ml antibody, 500 ng/well peptide) | no binding (tested: 100 ng/ml antibody, 500 ng/well peptide) | no binding (tested: 100 ng/ml antibody, 500 ng/well peptide) | no binding (tested: 100 ng/ml antibody, 500 ng/well peptide) | no binding (tested: 100 ng/ml antibody, 500 ng/well peptide) | no binding (tested: 100 ng/ml antibody, 500 ng/well peptide) | no binding (tested: 100 ng/ml antibody, 500 ng/well peptide) | no binding (tested: 100 ng/ml antibody, 500 ng/well peptide) | no binding (tested: 100 ng/ml antibody, 500 ng/well peptide) | no binding (tested: 100 ng/ml antibody, 500 ng/well peptide) | no binding (tested: 100 ng/ml antibody, 500 ng/well peptide) | no binding (tested: 100 ng/ml antibody, 500 ng/well peptide) | no binding (tested: 50 ng/ml antibody, 50 ng spotted) | binding result (IAPP fibrils): no binding (tested: 50 ng/ml antibody, 50 ng spotted); binding result (γ-synuclein fibrils): no binding (tested: 50 ng spotted); binding result (A-beta monomers): no binding (tested: 50 ng/ml antibody, 50 ng spotted); binding result (A-beta fibrils): no binding (tested: 50 ng/ml antibody, 50 ng spotted); binding result (fibrils of NAC (61-95)): no binding (tested: 50 ng spotted); binding result (β-synuclein monomers): no binding (tested: 50 ng spotted)
no binding (tested: 50 ng spotted) | no binding (tested: 50 ng spotted) | no binding (tested: 50 ng spotted) | Syn-F2 (antibody, IgG2a, V domains shown, also called mAb Syn-F2) VH: DVQLVESGGGLVQPGGSRKLSCAASGFTFSSFGMHWVRQAPEKGLEWVAYISSGSSTIYYADTVKGRFTISRDNPKNTLFLQMTSLRSEDTAMYYCARGNNPGTGYYYAMDYWGQGTSVTVSS VL: not shown | no binding (tested: 100 ng/ml antibody, 500 ng/well peptide) | no binding (tested: 100 ng/ml antibody, 500 ng/well peptide) | no binding (tested: 100 ng/ml antibody, 500 ng/well peptide) | no binding (tested: 100 ng/ml antibody, 500 ng/well peptide) | no binding (tested: 100 ng/ml antibody, 500 ng/well peptide) | no binding (tested: 100 ng/ml antibody, 500 ng/well peptide) | no binding (tested: 100 ng/ml antibody, 500 ng/well peptide) | no binding (tested: 100 ng/ml antibody, 500 ng/well peptide) | no binding (tested: 100 ng/ml antibody, 500 ng/well peptide) | no binding (tested: 100 ng/ml antibody, 500 ng/well peptide) | no binding (tested: 100 ng/ml antibody, 500 ng/well peptide) | no binding (tested: 100 ng/ml antibody, 500 ng/well peptide) | no binding (tested: 100 ng/ml antibody, 500 ng/well peptide) | no binding (tested: 100 ng/ml antibody, 500 ng/well peptide) | no binding (tested: 100 ng/ml antibody, 500 ng/well peptide) | no binding (tested: 100 ng/ml antibody, 500 ng/well peptide) | no binding (tested: 50 ng/ml antibody, 50 ng spotted) | binding result (IAPP fibrils): no binding (tested: 50 ng/ml antibody, 50 ng spotted); binding result (γ-synuclein fibrils): no binding (tested: 50 ng spotted); binding result (A-beta monomers): no binding (tested: 50 ng/ml antibody, 50 ng spotted); binding result (A-beta fibrils): no binding (tested: 50 ng/ml antibody, 50 ng spotted); binding result (fibrils of NAC (61-95)): no binding (tested: 50 ng spotted); binding result (β-synuclein monomers): no binding (tested: 50 ng spotted)
no binding (tested: 50 ng spotted) | no binding (tested: 50 ng spotted) | no binding (tested: 50 ng spotted) | Syn-O1 (antibody, IgG2b, V domains shown, also called mAb Syn-O1) VH: EVQLVESGGGLVQPKGSLKLSCAASGFTFNTYAMHWVRQAPGKGLEWVARIRSKSSNYATYYADSVKDRFTISRDDSQSMLYLQMNNLKTEDTAMYYCVRPLKWYFDVWGTGTTVTVSS VL: QIVLTQSPAILSASPGEKVTMTCSASSTVNYMHWYQQKSGTSPKIWIYDTSKLASGVPARFSGSGSWTSYSLTISSMEAEDAATYYCQQWNSNPPTFGAGTKLELK | no binding (tested: 100 ng/ml antibody, 500 ng/well peptide) | no binding (tested: 100 ng/ml antibody, 500 ng/well peptide) | no binding (tested: 100 ng/ml antibody, 500 ng/well peptide) | no binding (tested: 100 ng/ml antibody, 500 ng/well peptide) | no binding (tested: 100 ng/ml antibody, 500 ng/well peptide) | no binding (tested: 100 ng/ml antibody, 500 ng/well peptide) | no binding (tested: 100 ng/ml antibody, 500 ng/well peptide) | no binding (tested: 100 ng/ml antibody, 500 ng/well peptide) | no binding (tested: 100 ng/ml antibody, 500 ng/well peptide) | no binding (tested: 100 ng/ml antibody, 500 ng/well peptide) | no binding (tested: 100 ng/ml antibody, 500 ng/well peptide) | no binding (tested: 100 ng/ml antibody, 500 ng/well peptide) | no binding (tested: 100 ng/ml antibody, 500 ng/well peptide) | no binding (tested: 100 ng/ml antibody, 500 ng/well peptide) | no binding (tested: 100 ng/ml antibody, 500 ng/well peptide) | no binding (tested: 100 ng/ml antibody, 500 ng/well peptide) | no binding (tested: 50 ng/ml antibody, 50 ng spotted) | binding result (IAPP fibrils): no binding (tested: 50 ng/ml antibody, 50 ng spotted); binding result (γ-synuclein fibrils): no binding (tested: 50 ng spotted); binding result (A-beta monomers): no binding (tested: 50 ng/ml antibody, 50 ng spotted); binding result (A-beta fibrils): no binding (tested: 50 ng/ml antibody, 50 ng spotted); binding result (fibrils of NAC (61-95)): no binding (tested: 50 ng spotted); binding result (β-synuclein monomers): no binding (tested: 50 ng spotted)

From US20140241984A1 (UNITED ARAB EMIRATES UNIVERSITY, published 2014)
